Assay results reported in publication PMC3098718.
Several values for one entry are separate records, joined by “and”; a condition that tells them apart may be missing. Identical values can stand only once. Like-named read-outs stand apart in the source and are kept apart here.

Columns and labels:
[1] = target: FLAG::NOS-3 (S644E, T648E), phospho-mimetic (C. elegans); assay: pull-down
[2] = target: FLAG::NOS-3 (S644E, T648E), phospho-mimetic (C. elegans); assay: pull-down; remark: listed apart in the source

B1: FBF-1 (natural protein)
chain: MDQSKMRYTNQFRKTPQKPTSTEVGNHHTPAHSPMAQHETSMWNFNSLNPYFSMLNMNDGMNYARHQQNHIVTSRPPTPLTDLMSLRSFQSFPNVFMPVSRSRTSSFIQSDTDSSRLEPDDFSQNVRYCSTEIDRNNSSSKNDHLKYSRPALSRNSRSFTRSNNVLPTWSLDSNGEMRSRLSLSEVLDSGDLMKFAVDKTGCQFLEKAVKGSLTSYQKFQLFEQVIGRKDDFLKLSTNIFGNYFVQEIIGMSLTTYDDDNIKRQEKLKNFISSQMTDMCLDKFACRVIQSSLQNMDLSLACKLVQALPRDARLIAICVDQNANHVIQKVVAVIPLKNWEFIVDFVATPEHLRQICFDKYGCRVVQTIIEKLTADSINVDLTSAAQHLRERALQRLMTSVTNRCQELATNEYANYIIQHIVSNDDLAVYRECIIEKCLMRNLLSLSQEKFASHVVEKAFLHAPMELLAEMMDEIFDGYMPHPGTGKDALDIMMFHQFGNYVVQCMLTICCDAVSGRRQTKEGSYDHANSFQVWLKKLHSRVTKERHRLSRFSSGKKMIETLAHLRSTHPIYGLQSSGHESFKTDCFSTASEHDGLELEKNGIEEGNLRLMRTFSP
modifications: S^35 labeled methionine
fold reduction of FBF-1 binding compared to wild-type NOS-3 [1]: 14 fold | fold reduction of FBF-1 binding compared to wild-type NOS-3 [2]: 17 fold and > 20 fold
